In patent US12698507B2, “Methods and compositions for conferring and/or enhancing herbicide tolerance using protoporphyrinogen IX oxidase of various cyanobacteria or variant thereof” (FarmHannong Co., Ltd., priority 2019, dated 2026):

Tested on: PPO-deficient BT3 E. coli (ΔPPO)
Assay: PPO-inhibiting herbicide tolerance test of PPO variants in E. coli (growth on herbicide-containing LB agar)
Type: cell-based
Conditions: CyPPO19 variants in BT3 (ΔPPO) E. coli; LB agar with 0 to 2,000 μM herbicide, 37° C., dark, 16-20 hours
Method in brief: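 Tolerance was scored against wild-type enzyme: '−' for equal growth, one '+' per 10-fold gain, up to '+++++'. ΔPPO BT3 cells carrying variant plasmids, spotted as a 10-fold dilution series from OD600=0.5, grew 16-20 h at 37° C. in the dark on ampicillin LB agar containing 0 to 2,000 μM herbicide.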

| Molecule | tolerance level relative to wild type, Carfentrazone | tolerance level relative to wild type, Flumioxazin | tolerance level relative to wild type, Fomesafen | tolerance level relative to wild type, Oxyfluorfen | tolerance level relative to wild type, Saflufenacil | tolerance level relative to wild type, Sulfentrazone | tolerance level relative to wild type, Tiafenacil |
| --- | --- | --- | --- | --- | --- | --- | --- |
| CyPPO19 V165C + L327T + F360I: variant of CyPPO19 PPO protein (SEQ ID NO: 1) (protein, Synthetic_PPO of Thermosynechococcus elongatus PKUAC-SCTE542 (comprising GenBank No. CP032152.1)) MSEVDVAIVGGGLSGLSLAWRLQQSAPQYSVVLLEASDRLGGNITTQTAEGFVWELGPNSFAPTPALLQLIAEVGLQSELIRGDRHLPRYIYWRGQLYPLQPTRPLALATSNLLSPWGKVRAALGALGFVPPYLGSGDESVNSFFRRHLGQEVAERLVAPFVSGCYAGDPQQLSAAAAFRRIAQLEKLGGGLIAGALHLRRQQAPKPKPPTSVQMRPGELGSFKEGLAALPRAIAQQLKAPIHLQTPVQEITPDPKGGYLLRSGEQTWRARSVVLATPAYQTAELVAPFQPAIARVLATIPYPTVACVVLAYPAGLGRSVRPGFGVTIPRSQGIRTLGTIWSSCLFPQRTPAGWQVFTSIIGGATDPDLASLSEEAIVQQVQQDLNRLLDLPAAKARLLGMKVWRRAIPQYMVGYPEQWQQVTHALSQTPGLFLCSNYAEGVALGDRVEHGNRTAAAVAAYLSGGQP | + (‘+’ per each 10-fold resistance) | +++++ (until ‘+++++’ as maximal resistance) | ++ (‘+’ per each 10-fold resistance) | +++ (‘+’ per each 10-fold resistance) | ++++ (‘+’ per each 10-fold resistance) | +++++ (until ‘+++++’ as maximal resistance) | +++++ (until ‘+++++’ as maximal resistance) |
| CyPPO19 V165C + L327T + F360V: variant of CyPPO19 PPO protein (SEQ ID NO: 1) (protein, Synthetic_PPO of Thermosynechococcus elongatus PKUAC-SCTE542 (comprising GenBank No. CP032152.1)) MSEVDVAIVGGGLSGLSLAWRLQQSAPQYSVVLLEASDRLGGNITTQTAEGFVWELGPNSFAPTPALLQLIAEVGLQSELIRGDRHLPRYIYWRGQLYPLQPTRPLALATSNLLSPWGKVRAALGALGFVPPYLGSGDESVNSFFRRHLGQEVAERLVAPFVSGCYAGDPQQLSAAAAFRRIAQLEKLGGGLIAGALHLRRQQAPKPKPPTSVQMRPGELGSFKEGLAALPRAIAQQLKAPIHLQTPVQEITPDPKGGYLLRSGEQTWRARSVVLATPAYQTAELVAPFQPAIARVLATIPYPTVACVVLAYPAGLGRSVRPGFGVTIPRSQGIRTLGTIWSSCLFPQRTPAGWQVFTSVIGGATDPDLASLSEEAIVQQVQQDLNRLLDLPAAKARLLGMKVWRRAIPQYMVGYPEQWQQVTHALSQTPGLFLCSNYAEGVALGDRVEHGNRTAAAVAAYLSGGQP | + (‘+’ per each 10-fold resistance) | +++++ (until ‘+++++’ as maximal resistance) | + (‘+’ per each 10-fold resistance) | +++ (‘+’ per each 10-fold resistance) | ++++ (‘+’ per each 10-fold resistance) | +++++ (until ‘+++++’ as maximal resistance) | +++++ (until ‘+++++’ as maximal resistance) |
| CyPPO19 V165S + L327T + F360T: variant of CyPPO19 PPO protein (SEQ ID NO: 1) (protein, Synthetic_PPO of Thermosynechococcus elongatus PKUAC-SCTE542 (comprising GenBank No. CP032152.1)) MSEVDVAIVGGGLSGLSLAWRLQQSAPQYSVVLLEASDRLGGNITTQTAEGFVWELGPNSFAPTPALLQLIAEVGLQSELIRGDRHLPRYIYWRGQLYPLQPTRPLALATSNLLSPWGKVRAALGALGFVPPYLGSGDESVNSFFRRHLGQEVAERLVAPFVSGSYAGDPQQLSAAAAFRRIAQLEKLGGGLIAGALHLRRQQAPKPKPPTSVQMRPGELGSFKEGLAALPRAIAQQLKAPIHLQTPVQEITPDPKGGYLLRSGEQTWRARSVVLATPAYQTAELVAPFQPAIARVLATIPYPTVACVVLAYPAGLGRSVRPGFGVTIPRSQGIRTLGTIWSSCLFPQRTPAGWQVFTSTIGGATDPDLASLSEEAIVQQVQQDLNRLLDLPAAKARLLGMKVWRRAIPQYMVGYPEQWQQVTHALSQTPGLFLCSNYAEGVALGDRVEHGNRTAAAVAAYLSGGQP | + (‘+’ per each 10-fold resistance) | +++++ (until ‘+++++’ as maximal resistance) | +++ (‘+’ per each 10-fold resistance) | ++ (‘+’ per each 10-fold resistance) | ++++ (‘+’ per each 10-fold resistance) | +++ (‘+’ per each 10-fold resistance) | ++++ (‘+’ per each 10-fold resistance) |
| CyPPO19 V165C + I408W + F360V: variant of CyPPO19 PPO protein (SEQ ID NO: 1) (protein, Synthetic_PPO of Thermosynechococcus elongatus PKUAC-SCTE542 (comprising GenBank No. CP032152.1)) MSEVDVAIVGGGLSGLSLAWRLQQSAPQYSVVLLEASDRLGGNITTQTAEGFVWELGPNSFAPTPALLQLIAEVGLQSELIRGDRHLPRYIYWRGQLYPLQPTRPLALATSNLLSPWGKVRAALGALGFVPPYLGSGDESVNSFFRRHLGQEVAERLVAPFVSGCYAGDPQQLSAAAAFRRIAQLEKLGGGLIAGALHLRRQQAPKPKPPTSVQMRPGELGSFKEGLAALPRAIAQQLKAPIHLQTPVQEITPDPKGGYLLRSGEQTWRARSVVLATPAYQTAELVAPFQPAIARVLATIPYPTVACVVLAYPAGLGRSVRPGFGVLIPRSQGIRTLGTIWSSCLFPQRTPAGWQVFTSVIGGATDPDLASLSEEAIVQQVQQDLNRLLDLPAAKARLLGMKVWRRAWPQYMVGYPEQWQQVTHALSQTPGLFLCSNYAEGVALGDRVEHGNRTAAAVAAYLSGGQP | + (‘+’ per each 10-fold resistance) | ++++ (‘+’ per each 10-fold resistance) | +++ (‘+’ per each 10-fold resistance) | ++++ (‘+’ per each 10-fold resistance) | ++++ (‘+’ per each 10-fold resistance) | +++ (‘+’ per each 10-fold resistance) | ++++ (‘+’ per each 10-fold resistance) |
